The test system of the data set is Bacillus subtilis. Nature of the data set: cleaved RNA product abundance (RNA/gDNA barcode ratio) relative to median wild-type variant (ratio to wild type); higher = more accumulation of the downstream cleavage product. Conditions: cleavage site: cggR-gapA (positions -7 to +36 mutated). A digest of the protocol:
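Cleaved product abundance was measured with barcoded reporter mRNAs (truncated aprE or tetM) carrying mutagenized RNase Y cleavage-site windows in the B. subtilis chromosome. Cultures in LB at 37°C grew from OD600 0.0003 to 0.3. Gel-selected cleaved RNA was reverse transcribed and barcode-sequenced with genomic DNA barcodes, and the RNA:gDNA barcode ratio per construct was scaled to the median construct bearing the unmutated site.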

Where [1] appears, read: experiment (reporter, strain, medium): exp 4a: truncated aprE reporter, strain BJT201 with 2% xylose (RNase J1 expressed).
[2] abbreviates: experiment (reporter, strain, medium): exp 2b: truncated aprE reporter, strain BJT200.
Where [3] appears, read: experiment (reporter, strain, medium): exp 6: tetM reporter, strain 168.

Take “ACAGACGAAGGAGCCGCAAAGAAGTTGTTAAGGGATGAATAATCCCTCAAAATAAATATCTCTCACTTATTTAAA”: the “cleaved RNA product abundance” value under setting [1] was found to be 0.316. On the same count and under the same terms, to “ACAGACGAAGGAGCCGCAAAGAAGTTGTTAAGGGATGAATAATCCCTCAATATAAATACCTCTCACTTATTTAAA” belongs 0.182. For the sequence “ACAGACGAAGGAGCCGCAAAGAAGTTGTTAAGGGATGAATAATCCCTCAATATAAATATCTCTCACTTATTTAAA”, the “cleaved RNA product abundance” value runs as follows: under setting [2], 0.357; under setting [1], 0.453; under setting [3], 0.537. Take “ACAGACGAAGGAGCCGCAAAGAAGTTGTTAAGGGATGAATAATCCCTCTATATAAATATCTCTCACTTATTTAAA”: under setting [1], the “cleaved RNA product abundance” value turned out to be 0.411. The same measure, in the same setting: to “ACAGACGAAGGAGCCGCAAAGAAGTTGTTAAGGGATGAATAATCCCTTAATATAAATATCTCTCACTTATTTAAA” belongs 0.892; to “ACAGACGAAGGAGCCGCAAAGAAGTTGTTAAGGGATGAATAATCCGTCAATATAAATATCTCTCACTTATTTAAA”, 0.418; to “ACAGACGAAGGAGCCGCAAAGAAGTTGTTAAGGGATGAATAATTCCTCAATATAAATATCTCTCACTTATTTAAA”, 0.404. The same measure, in the same setting: to “ACAGACGAAGGAGCCGCAAAGAAGTTGTTAAGGGCTGAATAATCCCTCAATATAAATATCTCTCACTTATTTAAA” belongs 0.198; to “ACAGACGAAGGAGCCGCAAAGAAGTTGTTAAGGTATGAATAATCCCTCAATATAAATATCTCTCACTTATTTAAA”, 0.12; to “ACAGACGAAGGAGCCGCAAAGAAGTTGTTAAGTGATGAATAATCCCTCAATATAAATATCTCTCACTTATTTAAA”, 0.0952. Same read-out and setting: to “ACAGACGAAGGAGCCGCAAAGAAGTTGTTCAGGGATGAATAATCCCTCAATATAAATATCTCTCACTTATTTAAA” belongs 0.446; to “ACAGACGAAGGAGCCGCAAAGAAGTTTATAAGGGATGAATAATCCCTCAATATAAATATCTCTCACTTATTTAAA”, 0.438. For the sequence “ACAGACGAAGGAGCCGCAAAGAAGTTTATTAAGGGATGAATAATCCCTCAATATAAATATCTCTCACTTATTTAA”, under setting [1], the “cleaved RNA product abundance” value was 0.754. Turning to “ACAGACGAAGGAGCCGCAAAGAAGTTTCTAAGGGATGAATAATCCCTCAATATAAATATCTCTCACTTATTTAAA”, the “cleaved RNA product abundance” value runs as follows: under setting [2], 0.234; under setting [1], 0.344. Turning to “ACAGACGAAGGAGCCGCAAAGAAGTTTTAAGGGATGAATAATCCCTCAATATAAATATCTCTCACTTATTTAAAG”, under setting [1], the “cleaved RNA product abundance” value came out at 0.15.

In the case of “ACAGACGAAGGAGCCGCAAAGAAGTTTTTAAAGGATGAATAATCCCTCAATATAAATATCTCTCACTTATTTAAA”, the “cleaved RNA product abundance” value under setting [1] turned out to be 0.192. “ACAGACGAAGGAGCCGCAAAGAAGTTTTTAACGGATGAATAATCCCTCAATATAAATATCTCTCACTTATTTAAA”: the “cleaved RNA product abundance” value runs as follows: under setting [1], 0.197; under setting [3], 0.192. On to “ACAGACGAAGGAGCCGCAAAGAAGTTTTTAAGAGATGAATAATCCCTCAATATAAATATCTCTCACTTATTTAAA”, for which the “cleaved RNA product abundance” value under setting [1] is 0.183. On to “ACAGACGAAGGAGCCGCAAAGAAGTTTTTAAGGAATGAATAATCCCTCAATATAAATATCTCTCACTTATTTAAA”, for which the “cleaved RNA product abundance” value under setting [2] amounted to 0.0825 and the “cleaved RNA product abundance” value under setting [1] stood at 0.163. With “ACAGACGAAGGAGCCGCAAAGAAGTTTTTAAGGCATGAATAATCCCTCAATATAAATATCTCTCACTTATTTAAA”, under setting [1], the “cleaved RNA product abundance” value came to 0.119. Turning to “ACAGACGAAGGAGCCGCAAAGAAGTTTTTAAGGGAAGAATAATCCCTCAATATAAATATCTCTCACTTATTTAAA”, the “cleaved RNA product abundance” value was 0.128 under setting [2] and 0.149 under setting [1]. On to “ACAGACGAAGGAGCCGCAAAGAAGTTTTTAAGGGACGAATAATCCCTCAATATAAATATCTCTCACTTATTTAAA”, for which, under setting [1], the “cleaved RNA product abundance” value was determined as 0.444. Still for that read-out and setting: to “ACAGACGAAGGAGCCGCAAAGAAGTTTTTAAGGGATAAATAATCCCTCAATATAAATATCTCTCACTTATTTAAA” belongs 0.214; to “ACAGACGAAGGAGCCGCAAAGAAGTTTTTAAGGGATCAATAATCCCTCAATATAAATATCTCTCACTTATTTAAA”, 0.289; to “ACAGACGAAGGAGCCGCAAAGAAGTTTTTAAGGGATGAAAAATCCCTCAATATAAATATCTCTCACTTATTTAAA”, 0.293. Same read-out and setting: in the case of “ACAGACGAAGGAGCCGCAAAGAAGTTTTTAAGGGATGAATAAACCCTCAATATAAATATCTCTCACTTATTTAAA” it was 0.17.

On to “ACAGACGAAGGAGCCGCAAAGAAGTTTTTAAGGGATGAATAATCACTCAATATAAATATCTCTCACTTATTTAAA”, for which the “cleaved RNA product abundance” value by setting is: under setting [2], 0.125; under setting [1], 0.0945. In the case of “ACAGACGAAGGAGCCGCAAAGAAGTTTTTAAGGGATGAATAATCCATCAATATAAATATCTCTCACTTATTTAAA”, the “cleaved RNA product abundance” value by setting is: under setting [2], 0.178; under setting [1], 0.189. As to “ACAGACGAAGGAGCCGCAAAGAAGTTTTTAAGGGATGAATAATCCCACAATATAAATATCTCTCACTTATTTAAA”, under setting [1], the “cleaved RNA product abundance” value was determined as 0.251.

For “ACAGACGAAGGAGCCGCAAAGAAGTTTTTAAGGGATGAATAATCCCGCAATATAAATATCTCTCACTTATTTAAA”, under setting [1], the “cleaved RNA product abundance” value stood at 0.137. On to “ACAGACGAAGGAGCCGCAAAGAAGTTTTTAAGGGATGAATAATCCCTAAATATAAATATCTCTCACTTATTTAAA”, for which the “cleaved RNA product abundance” value under setting [2] worked out at 0.364. As for “ACAGACGAAGGAGCCGCAAAGAAGTTTTTAAGGGATGAATAATCCCTCAACATAAATATCTCTCACTTATTTAAA”, the “cleaved RNA product abundance” value under setting [1] is 0.295. As to “ACAGACGAAGGAGCCGCAAAGAAGTTTTTAAGGGATGAATAATCCCTCAATAAAAATATCTCTCACTTATTTAAA”, the “cleaved RNA product abundance” value under setting [1] was 0.0781. With “ACAGACGAAGGAGCCGCAAAGAAGTTTTTAAGGGATGAATAATCCCTCAATATAAACATCTCTCACTTATTTAAA”, under setting [1], the “cleaved RNA product abundance” value was 0.208. Take “ACAGACGAAGGAGCCGCAAAGAAGTTTTTAAGGGATGAATAATCCCTCAATATAAATATCTCTCACTTATTTAAA”: the “cleaved RNA product abundance” value is 0.274 under setting [2], 0.365 under setting [1] and 0.209 under setting [3]. On to “ACAGACGAAGGAGCCGCAAAGAAGTTTTTAAGGGATGAATAATCCCTCAATATACATATCTCTCACTTATTTAAA”, for which, under setting [1], the “cleaved RNA product abundance” value came to 0.364. Still for that read-out and setting: in the case of “ACAGACGAAGGAGCCGCAAAGAAGTTTTTAAGGGATGAATAATCCCTCAATTTAAATATCTCTCACTTATTTAAA” it was 0.188; in that of “ACAGACGAAGGAGCCGCAAAGAAGTTTTTAAGGGATGAATAATCCCTCACTATAAATATCTCTCACTTATTTAAA”, 0.267; in that of “ACAGACGAAGGAGCCGCAAAGAAGTTTTTAAGGGATGAATAATCCCTCATTATAAATATCTCTCACTTATTTAAA”, 0.405. For “ACAGACGAAGGAGCCGCAAAGAAGTTTTTAAGGGATGAATAATCCCTTAATATAAATATCTCTCACTTATTTAAA”, the “cleaved RNA product abundance” value by setting is: under setting [2], 0.844; under setting [1], 0.798. For “ACAGACGAAGGAGCCGCAAAGAAGTTTTTAAGGGATGAATAATCCGTCAATATAAATATCTCTCACTTATTTAAA” the same measures were 0.133 and 0.321. With “ACAGACGAAGGAGCCGCAAAGAAGTTTTTAAGGGATGAATAATGCCTCAATATAAATATCTCTCACTTATTTAAA”, the “cleaved RNA product abundance” value is 0.121 under setting [2] and 0.17 under setting [1]. As for “ACAGACGAAGGAGCCGCAAAGAAGTTTTTAAGGGATGAATAATTCCTCAATATAAATATCTCTCACTTATTTAAA”, the “cleaved RNA product abundance” value was 0.177 under setting [2] and 0.195 under setting [1]. For “ACAGACGAAGGAGCCGCAAAGAAGTTTTTAAGGGATGAATATTCCCTCAATATAAATATCTCTCACTTATTTAAA”, the “cleaved RNA product abundance” value by setting is: under setting [2], 0.214; under setting [1], 0.341. On the same counts, the results for “ACAGACGAAGGAGCCGCAAAGAAGTTTTTAAGGGATGACTAATCCCTCAATATAAATATCTCTCACTTATTTAAA” are 0.201 and 0.212. With “ACAGACGAAGGAGCCGCAAAGAAGTTTTTAAGGGATGAGTAATCCCTCAATATAAATATCTCTCACTTATTTAAA”, under setting [1], the “cleaved RNA product abundance” value was found to be 0.235.

With “ACAGACGAAGGAGCCGCAAAGAAGTTTTTAAGGGATGTATAATCCCTCAATATAAATATCTCTCACTTATTTAAA”, the “cleaved RNA product abundance” value by setting is: under setting [2], 0.285; under setting [1], 0.331. For “ACAGACGAAGGAGCCGCAAAGAAGTTTTTAAGGGATTAATAATCCCTCAATATAAATATCTCTCACTTATTTAAA” the same measures were 0.364 and 0.364. For “ACAGACGAAGGAGCCGCAAAGAAGTTTTTAAGGGTTGAATAATCCCTCAATATAAATATCTCTCACTTATTTAAA” the same measures were 0.166 and 0.271.

As to “ACAGACGAAGGAGCCGCAAAGAAGTTTTTAAGGTATGAATAATCCCTCAATATAAATATCTCTCACTTATTTAAA”, the “cleaved RNA product abundance” value under setting [1] stood at 0.098.

Take “ACAGACGAAGGAGCCGCAAAGAAGTTTTTAAGTGATGAATAATCCCTCAATATAAATATCTCTCACTTATTTAAA”: the “cleaved RNA product abundance” value stood at 0.117 under setting [2] and 0.0945 under setting [1].

As for “ACAGACGAAGGAGCCGCAAAGAAGTTTTTAATGGATGAATAATCCCTCAATATAAATATCTCTCACTTATTTAAA”, the “cleaved RNA product abundance” value under setting [1] was 0.175. The same measure, in the same setting: to “ACAGACGAAGGAGCCGCAAAGAAGTTTTTAGGGGATGAATAATCCCTCAATATAAATATCTCTCACTTATTTAAA” belongs 0.507; to “ACAGACGAAGGAGCCGCAAAGAAGTTTTTATGGGATGAATAATCCCTCAATATAAATATCTCTCACTTATTTAAA”, 0.323.

Values taken from the supplement of paper PMC11780869.
